# Results reported in the DeepSol protein solubility set.
# Assay: soluble on expression in E. coli; label from the status in PepcDB or PDB records
row,Sequence,soluble on expression in E. coli
1,MGTGQRKDPSQQRSQETVARILSATGQVLRAKGYTGCSTNAIAEAAGISKGSVYQYFANKDEIIEVLIDKIMEETTATFGTQLEQAVAKGTFLKDAALQSQLLAVLDRYCDILGSLLNDAPHLALTAHRSVRIEERCRDLLRTYVTLNPSAIGPGVDLEALLLVLTVSYREVSLEYLRRDLRDRRNELATVLYDMTMGGLAGRVTRGV,not soluble
2,MSLRYIYFFGRKINLSERDKIFRDITSKYKCIHDLRCAFDHTEISSFENIDFNIIDDYLFYIELNEKSYTFNDGISLMVQERFWEAHEALEQLWRHSNGLEKSTLRFIIMVCTAFVHLQRGHYSIYHEVMENALKIDTYNEYKCINIKSLKSEIRSGIFNTYFFIKSLKEGHHHHHH,soluble
3,MATLFIADLHLCVEEPAITAGFLRFLAGEARKADALYILGDLFEAWIGDDDPNPLHRQMAAAIKAVSDSGVPCYFIHGNRDFLLGKRFARESGMTLLPEEKVLELYGRRVLIMHGDTLCTDDAGYQAFRAKVHKPWLQMLFLALPLFVRKRIAARMRANSKEANSSKSLAIMDVNQNAVVSAMEKHQVQWLIHGHTHRPAVHELIANQQPAFRVVLGAWHTEGSMVKVTADDVELIHFPFLEHHHHHH,not soluble
4,MSLNNYPFASMRDCFDMSAYFVVGPQDCKGRPVTDVVDDALRGGATFIQLRAKNADAKDITEMARDIAQVIKNSGKSDSVAFVIDDRVDVVWQARDKGIKVDGVHIGQTDMEPQEARALLGEDAIVGLSAETESLVKLINELPSGCIDYIGAGPLHVSTTKPEASVGGNDGSGHTLDEEQINAICAASEFPVVVGGGVHADDMEMLARSKAAGWFVVSAIAGADDPEAATREMVTRWKAVRGDAEGHHHHHH,soluble
5,MGSDKIHHHHHHMTAALPAGSDLVIVLPHLGPGGAQKVALMAAEHFLVQGRQVTLVTLLPDKPLSHAVPEGLRWVDLGPAVAETTSNRAPIARIWRFSCTWGRRSLAWISLVIGWKVLKRLVPGQAPLFVQWLVSSASGVQATLLRDLLYAGKPARVLSLLTRTNLLCCQAMWALPGHLVVSERNDPRLQKQSFPWLRLRSWLWQRADVITANTIGVLEGLQHCHPAMADDMRLLPNPLVVDSHPGNHSDEPASGTCFLAVCRLVPQKGIDLLIQAYAQLPEPLREMWPLLIAGDGPERASLETLASSLLPRGQVRFMGFQRNPQVLYHRDAVFVLSSRFEGMPNSLLEAMGSGLAVIVSDASPGPLEVVVHGKSGWVVPTEKVTLLAEAMQAMAENPALRCRLGDAAAEFMDAYSWDTLDPIWSDILCLEKPG,not soluble
6,MTWKNFGFEIFGEKYGQEELEKRIKDEHTPPPDSPVFGGLKLKLKKEKFKTLFTLGTTLKGFRRATHTVGTGGIGEITIVNDPKFPEHEFFTAGRTFPARLRHANLKYPDDAGADARSFSIKFADSDSDGPLDIVMNTGEANIFWNSPSLEDFVPVEEGDAAEEYVYKNPYYYYNLVEALRRAPDTFAHLYYYSQVTMPFKAKDGKVRYCRYRALPGDVDIKEEDESGRLTEEEQRKIWIFSRHENEKRPDDYLRKEYVERLQKGPVNYRLQIQIHEASPDDTATIFHAGILWDKETHPWFDLAKVSIKTPLSPDVLEKTAFNIANQPASLGLLEAKSPEDYNSIGELRVAVYTWVQHLRKLKIGSLVPAGQNAIYNVEVETGDREHAGTDATITIRITGAKGRTDYLKLDKWFHNDFEAGSKEQYTVQGFDVGDIQLIELHSDGGGYWSGDPDWFVNRVIIISSTQDRVYSFPCFRWVIKDMVLFPGEATLPFNEVPAIVSEQRQKELEQRKLTYQWDYVSDDMPGNIKAKTHDDLPRDVQFTDEKSRSYQESRKAALVNLGIGSLFTMFENWDSYDDYHILYRNWILGGTPNMADRWHEDRWFGYQFLNGANPVILTRCDALPSNFPVTNEHVNASLDRGKNLDEEIKDGHIYIVDFKVLVGAKSYGGPVLEDIGYKVPDHLKHDEADIRYCAAPLALFYVNKLGHLMPIAIQINQEPGPENPIWTPHEENEHDWMMAKFWLGVAESNFHQLNTHLLRTHLTTESFALSTWRNLASAHPIFKLLQPHIYGVLAIDTIGRKELIGSGGIVDQSLSLGGGGHVTFMEKCFKEVNLQDYHLPNALKKRGVDDPSKLPGFYYRDDGLALWEAIETFIGEIIAIFYKNDDDVKRDNEIQSWIYDVHKNGWRVNPGHQDHGVPASFESREQLKEVLTSLVFTFSCQHAAVNFSQKDHYGFTPNAPAILRHPPPKKKGEATLQSILSTLPSKSQAAKAIATVYILTKFSEDERYLGNYSATAWEDKDALDAINRFQDKLEDISKKIKQRNENLEVPYIYLLPERIPNGTAI,soluble
7,SENLPAVTTEEPTPMGRGPVGPSGGGSTRDQVRTVVMRPSVSWEKAGPEEAKAPVRGGATVPAESLERPGPSSCFSRDASVITKLAKNEAGAFEPPCSETVPETVRWVWPWNP,soluble
8,VGPGMPFANRVVNRFGQVGLVPCSIGGTKLSQWQKGEFLYEETVKRAKAAMASGGGGSYRAVLWYQGESDTVDMVDASVYKKRLVKFFSDLRNDLQHPNLPIIQVRCLNT,soluble
9,MVAVIIKGNEVAEKKRAQLKEEVVKLKEQGIVPGLAVILVGEDPASRSYVKGKEKGCEQVGIYSELIEFPETITEERLLAEIDRLNGDDRINGILVQLPLPKHIEEKAIIERISPEKDVDGFHPISVGRMMTGQDTFLPCTPHGIVELVKETNLDISGKHVVVIGRSNIVGKPVGQLFLNENATVTYCHSKTQNMKELTKLADILIVAVGRPKMVTADYIKEGAVVIDVGVNRLETGKLCGDVDFDNVLDVASYITPVPKGVGPMTITMLLHNTVESAKRAGVVCK,not soluble
10,MGSDKIHHHHHHMSNAKRLLVSDMKMGVDISENELLRQSEGLLQRLLFDHTTQRNIFWATDDYTTLGDAYKYDAPITTDSITGEHDTVIQPRVLKSKEEQANRTKDKAEVFTPSWVCNAQNNLIDEAWFGRKDVFNIEQPETKTWIATTEPITFPEGKTWKDYVCSTRMEITCGEAPYLVSRYDTTTGEFIPIPQRIGMLDRKLRIISENTSSTGEWLKMAQKAYKNIYAYEWQGDNLLLAREALLITFIEYYEEKFGKRPLDKSIEYIAYIISWNVWQMDGLKGVVPNSCTHGVSVLPDDLFESMEELILCPGCQNESIKKHNGTYCLIRDWGCKDPKTGENNRKIRFVDLIKNNI,not soluble
11,MSLQGRRRKSLVFFPFFKINDKGASAMEEMVVVTPEKLEKLMKQKLEAAGLHSEHAEEVARHLTFADASGIHSHGAVRMDYYAERIAKGGITIDPELSFEKTGPSTAIFHGDNGVGQFVCNEALAAAVDLAKESGVAYVGVSQTSHSGTLSYYVKKAAEQGMVALSMCQSDPMVVPFGGTSNYFGTNPIAFAAPRAGHEPVVFDMATTVQAWGKILDARSRDVEIPDTWAVDEKGQPTTDPYEVRGLLPISGPKGYGLMMMVDVLAGSLLGLPFGKHVSSMYADLTEKRNLGQMFLVIDPSRFTDSERFKENINQMVEELHCVPTAEGFQQVYYPGEIGQLNYQKAMSEGIEIPQSIYDYLVSEIVHYDKYGGQGAFAKEGGSHHHHHH,soluble
12,EGRATHLQGLVVDITERKEAQKMLEIQRELGAKLNTTWNLHAILNMVLDACLQINGIDAGGVYIRDELLDQINLVQSRGISPEFKEKVSRFKADSNEAKQVWAEKPIYSMDFYSDKMAEAARKEGIKAVAVIPLKYSNEIIGSLNFASH,not soluble
13,MGSDKIHHHHHHMYSHPTAIQTMSDGTIKQVNPFSGTEVWTVPGRGHRPLSTSQGNITPITPSDHSNTCAFCSDRYLDTPPEKARIVRDDDGWTILRGVLPDRLHDSVPAFRRVSNLFEIVSYDYWRNNYGFSMDLETTDWMQSYISTEKGREHVLATVRTKLQAAGIQDMPDDATLLPQGEAFFGGGHDLIIGQRHFVPDATQSDQLASAGTLSPDEHFAFIFFTVDALREAYQRNRYAPYVAVFQNWLKPAGASFDHLHKQLVAIDERGVHGETEIAKLRNYPNMYNEWAVDYAGQRNLIIAENDHAVCFAGFGHRYPTLEVFSRSATPEPWLQTNEEIKAMSDLIHACHAAAGPHVPCNEEWHHKPIDLDIAMPWRVMIKWRVSTLAGFEGSTKVYLNTLSPWDVRDRVVPRLYELRDSGAIDGSIRIATECSVRRNSLLYNKNLNM,not soluble
14,MSLSTARLPENAERNRFQDVLPYDDARVELVPTKENNTGYINASHIKVSVSGIEWDYIATQGPLQNTCQDFWQMVWEQGIAIIAMVTAEEEGGREKSFRYWPRLGSRHNTVTYGRFKITTRFRTDSGCYATTGLKMKHLLTGQERTVWHLQYTDWPEHGCPEDLKGFLSYLEEIQSVRRHTNSTSDPQSPNPPLLVHCSAGVGRTGVVILSEIMIACLEHNEVLDIPRVLDMLRQQRMMLVQTLCQYTFVYRVLIQFLKSSRLIEGHHHHHH,not soluble
15,MAHIIRRVSIKDVENFISMLAKIYDESPYMFYTPGEYDPSVTSASKQLEEYITSPHKVIFVAESDEQLVGFAFVNTTPFQRIKHVAKIDLGVKKLYQHRGIGQALLDAIMAWCLNNQIHRIEANVPLNNQPALELFKSADFQIEGVLKDKLFIDGKYYDDYMMAKILN,soluble
16,GSMKKWSDTEVFEMLKRMYARVYGLVQGVGFRKFVQIHAIRLGIKGYAKNLPDGSVEVVAEGYEEALSKLLERIKQGPPAAEVEKVDYSFSEYKGEFEDFETY,soluble
17,MTWPARRVLYAIWQDPWMTVSRATYISRMLALVNWATWPDDADTSDTPAACVDGDCSRPNAPGERYPTFRWSDALVRELDAVLLSTEPYRFTEDHADALERQIGKPVLLVDGEMLSWYGSRAVAGARYLRSLAQGFLEHHHHHH,not soluble
18,MHPPIKIQTILLFILTTVHCSAKRLPQIYWNSTNPLVERYAAIGDTLDIVCPFFDENSDELTEQSIIYRVTEEEYENCERRSKAKELGRCTQPYQEEKLKVAFRLMSPNPSGLDYRPGVTYYFISTSTGSRKGLYNEQGGLCASHNLKMVIHITDRNGDIGPHHHRHHHKKTTTTTTTSTSTSTPKTIPPVVEMDSSAEKLWEQFYEKVMPIDNTWPEITRGERVTLYQGNKKDEYEQVPAEVVDFEIHEIGDVESLYSSSGRLRYVLLLPALLLLRIF,not soluble
19,MTDSKYFTTNKKGEIFELKAELNNEKKEKRKEAVKKVIAAMTVGKDVSSLFPDVVNCMQTDNLELKKLVYLYLMNYAKSQPDMAIMAVNSFVKDCEDPNPLIRALAVRTMGCIRVDKITEYLCEPLRKCLKDEDPYVRKTAAVCVAKLHDINAQMVEDQGFLDSLRDLIADSNPMVVANAVAALSEISESHPNSNLLDLNPQNINKLLTALNECTEWGQIFILDCLSNYNPKDDREAQSICERVTPRLSHANSAVVLSAVKVLMKFLELLPKDSDYYNMLLKKLAPPLVTLLSGEPEVQYVALRNINLIVQKRPEILKQEIKVFFVKYNDPIYVKLEKLDIMIRLASQANIAQVLAELKEYATEVDVDFVRKAVRAIGRCAIKVEQSAERCVSTLLDLIQTKVNYVVQEAIVVIRDIFRKYPNKYESIIATLCENLDSLDEPDARAAMIWIVGEYAERIDNADELLESFLEGFHDESTQVQLTLLTAIVKLFLKKPSETQELVQQVLSLATQDSDNPDLRDRGYIYWRLLSTDPVTAKEVVLSEKPLISEETDLIEPTLLDELICHIGSLASVYHKPPNAFVEGSHGIHRK,soluble
20,MDVIKIGDIVARKSYQCDLLFRVIDIKEKNGEWEAILYGEDVRLVADAPCSDLVVIDEQEQQERKKREIELLEQSYRLFRQDYQAIKQKVEYRATGGYRVEKDFFQIPGRVLHLDGDPLYLRKCMDLYERIGVPVHGIYCEESEMPEKVGYWIEQFRPDILVITGHDSYSKSKGKVHELKAYRHSRHFVQTVKEARKKVPHLDQLIIFAGACQSHFESLIRAGANFASSPARVNIHALDPVYIVSRLSFTPFTETVDVWDVLRNTLTGEKGLGGVETKGVLRTGMPFRLIEDREENRRS,not soluble
